Laboratory results taken from patent publication US20230034474A1 (AC IMMUNE, published 2023).
Like-named read-outs stand apart in the source and are kept apart here.

What was measured:
[1] = target: T1, full-length sAPPalpha fragment (UniProt P05067-4 18-612, limits assumed); test: indirect ELISA, sAPPalpha coated
T1 construct: domain: sAPPalpha; Bought protein; also called soluble APP alpha; soluble amyloid precursor protein alpha
Procedure: (§1) Antibody target binding was evaluated by an enzyme-linked immunosorbent assay (ELISA). Briefly, Nunc MaxiSorp 96-well plates (Nunc) were coated for 18 h at 4° C. with 50 μL of 10 pg/mL Abeta1-42 or bovine serum albumin (BSA, Sigma) diluted in PBS. In selected assays, the full-length sAPPalpha fragment (Sigma) was additionally included by coating wells as described above, but at 4 pg/mL (0.04 μM). Plates were then washed 4-times with 300 μL of PBS containing 0.05% Tween20 (Millipore). To block non-specific binding to the plate, freshly prepared solution of PBS containing 0.05% Tween20 and 1% BSA, was added to each well (100 μL/well) and the plates were incubated for 1 h at 37° C. Primary antibodies were diluted to 100 nM in PBS containing 1% BSA and 0.05% Tween20, followed by 3-fold serial dilutions in duplicates. Solutions were added to plates at 50 μL/well and incubated for 1 h at 37° C. Subsequently, the plates were washed 4-times with 300 μL of PBS containing 0.05% Tween20. Plates were then incubated with horseradish peroxidase (HRP) conjugated goat anti-mouse secondary IgG (Abcam) for 1 h at 37° C. After final wash step (4-times with 300 μL of PBS containing 0.05% Tween20), plates were incubated with 3,3′,5,5′-tetramethylbenzidine (TMB) substrate (BD Biosciences) and reaction stopped with a Stop Solution (Sigma). Finally, optical densities (O.D.) were read at 450 nm absorption wavelength using a Tecan Infinite plate reader. Measured values are expressed as mean O.D. from a duplicate run ±1 standard deviation of the mean (S.D.).

[2] = target: T2, Human Abeta1-42 biotinylated at the peptide C-terminus (human, biotin at the peptide C-terminus); test: target capture ELISA
T2 construct: also called biotinylated Abeta1-42
Procedure: (§2) Briefly, a Nunc MaxiSorp 96-well plate (Nunc) was coated for 18 h at 4° C. with 50 μL of 5 pg/mL goat anti-mouse IgG, Fc-gamma fragment specific antibody (Jackson Immune Research) diluted in carbonate-bicarbonate buffer. The plate was then washed 4-times with 300 μL of PBS containing 0.05% Tween20 (Millipore). To block non-specific binding to the plate, freshly prepared solution of PBS containing 0.05% Tween20 and 1% BSA, was added to each well (100 μL/well) and the plate was incubated for 1 h at 37° C. […] Subsequently, the plate was washed 4-times with 300 μL of PBS containing 0.05% Tween20. […] After washing 4-times with 300 μL of PBS containing 0.05% Tween20, the plate was incubated for 45 min at ambient temperature with 50 μL/well of streptavidin-HRP (R&D systems) diluted 1:200 in PBS containing 1% BSA and 0.05% Tween20. The plate was again washed 4-times with 300 μL of PBS containing 0.05% Tween20 before incubating at ambient temperature for 20 or 30 min with 50 or 100 μL/well of 3,3′,5,5′-tetramethylbenzidine (TMB) enzyme substrate (BD Bioscience). Reaction was stopped with a 1.2 M HCl (Sigma) solution. Finally, optical densities (O.D.) were read at 450 nm absorption wavelength using a Tecan Infinite plate reader.

[3] = target: T2, Human Abeta1-42 biotinylated at the …; test: target capture ELISA: antibody held by anti-mouse Fc, biotinylated Abeta1-42 titrated in solution
Procedure: as §2

[4] = target: T2, Human Abeta1-42 biotinylated at the …; test: capture ELISA: antibody held on anti-mouse IgG Fc-coated plate, C-terminally biotinylated Abeta1-42 titrated in solution, streptavidin-HRP, O.D. 450 nm
Procedure: as §2

bovine serum albumin [5] = target: T3, bovine serum albumin (bovine, UniProt P02769 25-607); test: indirect ELISA, plate coated with BSA, antibody titrated, anti-mouse IgG-HRP, O.D. 450 nm
T3 construct: Negative control antigen; also called BSA
Procedure: (§3) Antibody target binding was evaluated by an enzyme-linked immunosorbent assay (ELISA). Briefly, Nunc MaxiSorp 96-well plates (Nunc) were coated for 18 h at 4° C. with 50 μL of 10 pg/mL Abeta1-42 or bovine serum albumin (BSA, Sigma) diluted in PBS. In selected assays, the full-length sAPPalpha fragment (Sigma) was additionally included by coating wells as described above, but at 4 pg/mL (0.04 μM). Plates were then washed 4-times with 300 μL of PBS containing 0.05% Tween20 (Millipore). To block non-specific binding to the plate, freshly prepared solution of PBS containing 0.05% Tween20 and 1% BSA, was added to each well (100 μL/well) and the plates were incubated for 1 h at 37° C. Primary antibodies were diluted to 100 nM in PBS containing 1% BSA and 0.05% Tween20, followed by 3-fold serial dilutions in duplicates. Solutions were added to plates at 50 μL/well and incubated for 1 h at 37° C. Subsequently, the plates were washed 4-times with 300 μL of PBS containing 0.05% Tween20. Plates were then incubated with horseradish peroxidase (HRP) conjugated goat anti-mouse secondary IgG (Abcam) for 1 h at 37° C. […] Finally, optical densities (O.D.) were read at 450 nm absorption wavelength using a Tecan Infinite plate reader. Measured values are expressed as mean O.D. from a duplicate run ±1 standard deviation of the mean (S.D.).

Abeta1-42 [6] = target: T4, Abeta1-42 (human); test: indirect ELISA, plate coated with Abeta1-42, antibody titrated, anti-mouse IgG-HRP, O.D. 450 nm
T4 construct: coated on plates in the direct ELISA, in solution as analyte in the sandwich ELISA; also called human Abeta 1-42; amyloid-beta 1-42
Procedure: as §3

Abeta1-42 [7] = target: T4, Abeta1-42; test: indirect ELISA, Abeta1-42 coated, antibody titrated
Procedure: as §1

[8] = target: T2, Human Abeta1-42 biotinylated at the …; test: capture ELISA: antibody held on anti-mouse IgG Fc-coated plate, C-terminally biotinylated Abeta1-42 titrated in solution, streptavidin-HRP, O.D. 450 nm; remark: listed apart in the source
Procedure: as §2

Abeta1-42 [9] = target: T4, Abeta1-42; test: indirect ELISA, plate coated with Abeta1-42, antibody titrated, anti-mouse IgG-HRP, O.D. 450 nm; remark: listed apart in the source
Procedure: as §3

Abeta1-42 [10] = target: T4, Abeta1-42; test: sandwich ELISA: ACI-31-25B1-Ab2 coated as capture, analyte Abeta1-42 titrated, biotinylated ACI-24-41F12-Ab3 as detection, streptavidin-HRP, O.D. 450 nm
Procedure: After washing 4-times with 300 μL of PBS containing 0.05% Tween20, the plate was incubated for 45 min at ambient temperature with 50 μL/well of streptavidin-HRP (R&D systems) diluted 1:200 in PBS containing 1% BSA and 0.05% Tween20. The plate was again washed 4-times with 300 μL of PBS containing 0.05% Tween20 before incubating at ambient temperature for 20 or 30 min with 50 or 100 μL/well of 3,3′,5,5′-tetramethylbenzidine (TMB) enzyme substrate (BD Bioscience). Reaction was stopped with a 1.2 M HCl (Sigma) solution. Finally, optical densities (O.D.) were read at 450 nm absorption wavelength using a Tecan Infinite plate reader.
Briefly, a Nunc MaxiSorp 96-well plate (Nunc) was coated for 18 h at 4° C. with 50 μL of capture antibody at 5 μg/mL, diluted in carbonate-bicarbonate buffer. The plate was then washed and blocked as described in the preceding paragraph.

bovine serum albumin [11] = target: T3, bovine serum albumin; test: indirect ELISA, plate coated with BSA, antibody titrated, anti-mouse IgG-HRP, O.D. 450 nm; remark: listed apart in the source
Procedure: as §3

[12] = target: T2, Human Abeta1-42 biotinylated at the …; test: capture ELISA: antibody held on anti-mouse IgG Fc-coated plate, C-terminally biotinylated Abeta1-42 titrated in solution, streptavidin-HRP, O.D. 450 nm; remark: listed apart in the source
Procedure: as §2

[13] = target: T2, Human Abeta1-42 biotinylated at the …; test: as above; remark: listed apart in the source
Procedure: as §2

T1 sequence (P05067 other isoform, or with tags, fused parts or gaps limits assumed): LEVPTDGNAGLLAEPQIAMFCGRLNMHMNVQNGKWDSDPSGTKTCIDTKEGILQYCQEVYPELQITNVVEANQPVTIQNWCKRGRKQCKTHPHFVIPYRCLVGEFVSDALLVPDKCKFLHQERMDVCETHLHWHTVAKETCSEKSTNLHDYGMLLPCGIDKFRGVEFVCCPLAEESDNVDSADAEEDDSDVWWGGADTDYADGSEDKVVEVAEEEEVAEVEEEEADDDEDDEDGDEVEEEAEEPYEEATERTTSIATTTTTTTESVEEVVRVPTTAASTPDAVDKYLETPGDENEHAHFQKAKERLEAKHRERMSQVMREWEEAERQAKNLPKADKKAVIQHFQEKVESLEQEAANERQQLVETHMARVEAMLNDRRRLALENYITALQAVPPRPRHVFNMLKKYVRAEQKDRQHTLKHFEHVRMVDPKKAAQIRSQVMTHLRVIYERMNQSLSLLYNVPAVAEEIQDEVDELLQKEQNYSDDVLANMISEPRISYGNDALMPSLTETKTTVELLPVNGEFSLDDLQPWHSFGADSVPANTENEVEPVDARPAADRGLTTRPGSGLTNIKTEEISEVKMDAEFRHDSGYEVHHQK

Row | Binder | binding result [1] | binding result [2] | also measured
1 | ACI-8041-6C3C4-Ab1 (antibody, mouse IgG2a, kappa, V domains shown, Murine IgG2a/kappa; also called ACD-8041-63C4-Ab1) VH: EVQLQQSGPELVKPGASVNISCKTSGYTFTEYTMHWMKQSHGKSLEWIGGINPNNGVTGYNQKFKGRATLTVDKSSSTAYMELRSLTSEDSAVYYCARSDYDDLYYAMDYWGQGTSVTVSS VL: EIVLTQSPTTMAASPGEKITITCSASSSISSNYLHWYQQKPGFSPKLLIYRTSNLASGVPARFSGSGSGTSYSLTIGTMEAEDVATYYCQQGSSIPFTFGSGTKLEIKR | no binding | binds | –
2 | ACI-8041-2B9H5-Ab1 (antibody, mouse IgG2a, kappa, V domains shown, Murine IgG2a/kappa; also called AC-8041-2B95-Ab1) VH: QVQLQQSDAELVKPGASVKISCKVSGYTFTDHPIHWMKQRPDQGLEWIGYFYPRDSSTHYNEKFKGKATLTADKSSSTAYMQLNSLTSEDSAVYFCARSMGYWGQGTSVTVSS VL: DIKMTQSPSSMYASLGERVTITCKASQDINSYLSWFQQKPGKSPKTLIYRANRLVDGVPSRFSGSGSGQDYSLTISSLDYEDMGIYYCLQYDEFPPTFGAGTKLELKR | no binding | binds | –
3 | ACI-8039-307F7-Ab2 (antibody, mouse IgG2a, kappa, V domains shown, Murine IgG2a/kappa; also called AC-8039-307F7-Ab2) VH: QVQLQQPGAELVRPGGSVKLSCKASGYSFTNYWMNWVKQRPGQGLEWIGMIHPSDSETRLNQKFKDKATLTVDKSSSTAYLQLSSPTSEDSAVYYCAKLLLYYFDYWGQGTTLTVSS VL: not shown | no binding | binds | –
4 | ACI-8041-1F11B5-Ab1 (antibody, mouse IgG2a, kappa, V domains shown, Murine IgG2a/kappa; also called ACI-8041-1F111B5-Ab1; ACI-8041- F1B5-Ab1) VH: QVQLKESGPGLVAPSQSLSITCTVSGFSLTNYGVSWIRQPPGKGLEWLGVIWGDGSTNYHSALISRLSISKDNSKSQVFLKLNSLQTDDTATYYCTKGAGSWGQGIPVTVSA VL: not shown | no binding | – | Kd [3]: 0.343 nM; EC50 (read off the curve) [4]: ~0.3 nM
5 | ACI-8037-103H5-Ab2 (antibody, mouse IgG2a, kappa, V domains shown, Murine IgG2a/kappa) VH: QVTLKESGPGILKPSQTLSLTCSFSGFSLSTSGMGVGWIRQPSGKGLEWLAHIWWDDDKYYNPSLKSRLTISKDSSRNQVFLKITSVDTADTATYYCVRRGTRLEDYFDFWGQGTTLTVSS VL: DVLMTQTPLSLPVSLGDQASISCRSSRSIVHSNGNTYLEWYLQKPGQSPKLLIFKVSNRFSGVPDRFSGSGSGTDFTLKISRVEAEDQGVYYCFQGSHVPLTFGAGTKLELKR | – | binds | –
6 | ACI-8041-3G11B3-Ab1 (antibody, mouse IgG2a, kappa, V domains shown, Murine IgG2a/kappa; also called ACD-8041-3G11B3-Ab1) VH: QVQLQQSGAELVKPGASVKLSCKASGYTFINYYIYWVKQRPGQGLEWIGEIIPSNDGTNFNEKFKTKATLTVDKSSSTAYMQLSSLTSEDSAVYYCTATGTVWGQGTLVTVSA VL: DVLMTQTPLSLPVSLGDQASISCRSSQSIVHSNGITYLEWYLQKPGQSPKLLIYKVSNRFSGVPDRFSGSGSGTDFTLKISRVEAEDLGVYYCFQGSHVPWTFGGGTKLEIKR | no binding | binds | –
7 | ACI-31-25B1-Ab2 (murine IgG2a with a lambda light chain) (antibody, V domains shown, also called AC-31-25B1-Ab2) VH: EVQLVESGGDLVKPGGSLKLSCAASRFTFSTYGMSWVRQTPDKRLEWVATISSGRSYTYYADSVKGRFTISRDNAKNTLYLQMSSLKSEDTAMYYCARNSNNQRDYYAMDYWGQGTSVTVSS VL: QLVLTQSSSASFSLGASAKLTCTLSSQHITYTIEWYQQQPLKPPKYVMVLEKDGSHSTGDGIPDRFSGSSSGADRYLSISNIQPEDEAVYICGVGDAIKEQFVYVFGGGTKVTVLG | – | – | EC50 (read off the curve) [8]: ~0.4 nM; Kd [3]: 0.312 nM; EC50 (read off the curve) (Abeta1-42 [9]): ~0.04 nM; EC50 (read off the curve) (Abeta1-42 [10]): ~9 nM; Kd (Abeta1-42 [7]): 0.041 nM; binding result (bovine serum albumin [11]): no binding (tested: 100 nM)
8 | ACI-8039-309D9-Ab2 (antibody, mouse IgG2a, kappa, V domains shown, Murine IgG2a/kappa; also called AC-8039-309D9-Ab2) VH: QVQLQQSGPQLVRPGASVKISCKASGNSFTSYWMHWVKQRPGQGLEWIGMIDPSDSETRLNQKFKDKATLTVDKSSSTAYMQLSSPTSEDSAVYYCAGLYFTLDYWGQGTSVTVSS VL: DILMTQSPSSLTVSAGEKVTMSCKSSQSLLASGNQNNYLAWHQQKPGRSPKILIIWASTRVSGVPDRFIGSGSGTDFTLTINSVQAEDLAVYYCQQSYSAPLTFGAGTKLELKR | no binding | binds | –

Now from value to binder, other results behind:

Row | binding result [1] | binding result [2] | Binder | also measured
9 | no binding | binds | ACI-8041-5A2D4-Ab1 (antibody, mouse IgG2a, kappa, V domains shown, Murine IgG2a/kappa) VH: EVQLQQSGPELVKPGASVKISCKTSGYTFTENTMHWVKQIHGKSLEWIGGINPNNGVTNNNQKFEGKATLTVDKSSSTAYMELRSLTSEDSAVYYCARSDYDALYYSMDCWGQGTSVTVSS VL: EIVLTQSPTTMAASPGEKITITCSGSSSIISNYLHWYQQKPGFSPKLLIYRTSNLASGVPTRFSGSGSGTSYSLTIGTMEAEDVATYYCQQGSSIPFTFGSGTKLEIKR | –
10 | no binding | binds | ACI-8041-5A6H9-Ab1 (antibody, mouse IgG2a, kappa, V domains shown, Murine IgG2a/kappa; also called ACI-8041-5A61H9-Ab1; AC-8041-5A619-Ab1) VH: DVQLQESGPGLVKPSQSLSLTCTVTGYSITSDYAWNWIRQFPGNKLEWMGYIDYSGITSYNPSLKSRISITRDTSKNQFFLQLNSVTTEDSATYYCARISGLDYDVRAGWFASWGQGTLVTVSA VL: DIVMTQAAFSNPVTLGTSVSISCRSSKSLLHSNGITYLYWYLQKPGQSPQLLIYQMSNLASGVPDRFSSSGSGTDFTLRISRVEAEDVGVYYCAQNLERPLTFGAGTKLELKR | –
11 | – | binds | ACI-24-41F12-Ab3 (IgG2a isotype) (antibody, V domains shown, Recombinant murine IgG2a/kappa with the same VH/VL as ACI-24-41F12-Ab2; Biotinylated when used as detection antibody in the sandwich ELISA; also called ACI-24-41F12-Ab3-rec1) VH: not shown VL: DVLMTQTPLSLPVSLGDQASISCRSSQSIVHSNGNTYLEWYLQKPGQSPKLLIYKVSNRFSGVPDRFSGSGSGTDFTLKISRVEAEDLGVYYCFQGSHVPLTFGAGTKLELKR | binding result (bovine serum albumin [5]): no binding (tested: 100 nM); EC50 (read off the curve) (Abeta1-42 [6]): ~0.07 nM; Kd (Abeta1-42 [7]): 0.066 nM
12 | – | binds | ACI-8037-109F4-Ab1 (antibody, mouse IgG2a, kappa, V domains shown, Murine IgG2a/kappa) VH: QVTLKESGPGILQPSQTLSLTCSFSGFSLSTSGMGVSWIRQPSGKGLEWLAHIYWDDDKRYNPSLKSRLTISKDTSRNQVFLKITSVDTADAGTYYCARRPIRTVVDAMDYWGQGTSVTVSL VL: DVLMTQTPLSLPVSLGDQASISCRSSQTIVHSNGNTYLEWYLQKPGQSPNLLIYKVSNRFSGVPDRFSGSGSGTDFTLKISRVEAEDLGVYYCFQGSHVPLTFGAGTKLELKR | –
13 | no binding | binds | ACI-8039-306H5-Ab1 (antibody, mouse IgG2a, kappa, V domains shown, Murine IgG2a/kappa; also called AC-8039-306H5-Ab1) VH: QVTLKESGPGILKPSQTLSLTCSFSGFSLSTSGMGVGWIRQPSGKGLEWLAHIWWDDDKYYNPSLKSQLTISKDTSRNQIFLKITSVDTADTATYYCVRSLYFDYWGQGTTLTVSS VL: DVVMTQTPLSLPVSLGDQASISCRSSQSLVHSNGNTYLHWYLQKPGQSPKLLIYKVSNRFSGVPDRFSGSGSGTDFTLKISRVEAEDLGVYFCSQSTHVPLTFGAGTKLELKR | –
14 | no binding | binds | ACI-8041-4G6D2-Ab1 (antibody, mouse IgG2a, kappa, V domains shown, Murine IgG2a/kappa) VH: QVQLQQSGAELVRPGASVKLSCKASGYTFTSYYMYWVKQRPGQGLEWIGEIIPSNGDTNFNEKFRSKATLTVDKSSSTAYMQLSSLTSEDSAVYYCTATGTVWGQGTLVTVSA VL: DVLMTQTPLSLPVSLGDQASISCRSSQSIVHSNGNTYLEWYLQKPGQSPKLLIYKVSNRFSGVPDRFSGSGSGTDFTLKISRVEAEDLGVYYCFQGSHVPWTFGGGTKLEIKR | –
15 | no binding | – | ACI-8041-9D7E1-Ab1 (antibody, mouse IgG2a, kappa, V domains shown, Murine IgG2a/kappa) VH: EVMLVESGGGLVKPGGSLKLSCAASGFTFSSYAMSWVRQTPEKRLEWVATISSGGNYTYCPDSVKGRFTISRDNAKNTLYLQMSSLRSEDTAMYYCAAYAYDDGYYFDYWGQGTTLTVSS VL: not shown | EC50 (read off the curve) [12]: ~1 nM; Kd [3]: 1.1 nM
16 | no binding | – | ACI-8041-10H3B11-Ab1 (antibody, mouse IgG2a, kappa, V domains shown, Murine IgG2a/kappa; Same VH as ACI-8041-9D7E1-Ab1; also called ACI-8041-11B3B11-Ab1; AC-8041-13B11-Ab) VH: EVMLVESGGGLVKPGGSLKLSCAASGFTFSSYAMSWVRQTPEKRLEWVATISSGGNYTYCPDSVKGRFTISRDNAKNTLYLQMSSLRSEDTAMYYCAAYAYDDGYYFDYWGQGTTLTVSS VL: DIQMTQSPSSLSASLGGKVTITCKASQDINKYIAWYQHKPGKGPRLLIHYTSTLQPGIPSRFSGSGSGRDYSFSISNLGPEDIATYYCLQYDNLLTFGGGTKLEIKR | Kd [3]: 2.6 nM; EC50 (read off the curve) [13]: ~2 nM
